Laboratory results as given in US9284543B2, “Neutral active soluble truncated PH20 polypeptides and uses thereof” (Halozyme, Inc., priority 2008, dated 2016).

Legend:
[1] = Microtiter hyaluronidase activity assay with biotinylated-hyaluronic acid; assay type: biochemical; settings: 72 hour post transfection supernatant
CHO-S cells = assay: Western blot analysis of PH20 expression in media and cells after transient expression; assay type: cell-based, Chinese Hamster; settings: media versus cells
Method in brief: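 PH20 expression and solubility were judged by anti-PH20 Western blot of non-reduced media and cell fractions, with expression shown by a ~66 kDa band. Samples came from CHO-S cells transiently transfected (GeneJuice) with mutant PH20-HZ24 DNA and cultured 48-72 h. GPI-anchored mutants were cleaved with PI-PLC to release soluble protein.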

| Molecule | pH 5.5 Activity ([1]; Table 6) | pH 7.4 Activity ([1]; Table 6) | pH 5.5 Activity ([1]; Table 6A) | pH 7.4 Activity ([1]; Table 6A) | Expressed in Media (CHO-S cells) |
| --- | --- | --- | --- | --- | --- |
| SPAM1-ASPS: C-terminally truncated human PH20, precursor 487 aa (SEQ ID NO:14), mature 452 aa (SEQ ID NO:66) (protein, listed as Homo sapiens, HuPH20 precursor 1-487) MGVLKFKHIFFRSFVKSSGVSQIVFTFLLIPCCLTLNFRAPPVIPNVPFLWAWNAPSEFCLGKFDEPLDMSLFSFIGSPRINATGQGVTIFYVDRLGYYPYIDSITGVTVNGGIPQKISLQDHLDKAKKDITFYMPVDNLGMAVIDWEEWRPTWARNWKPKDVYKNRSIELVQQQNVQLSLTEATEKAKQEFEKAGKDFLVETIKLGKLLRPNHLWGYYLFPDCYNHHYKKPGYNGSCFNVEIKRNDDLSWLWNESTALYPSIYLNTQQSPVAATLYVRNRVREAIRVSKIPDAKSPLPVFAYTRIVFTDQVLKFLSQDELVYTFGETVALGASGIVIWGTLSIMRSMKSCLLLDNYMETILNPYIINVTLAAKMCSQVLCQEQGVCIRKNWNSSDYLHLNPDNFAIQLEKGGKFTVRGKPTLEDLEQFSEKFYCSCYSTLSCKEKADVKDTDAVDVCIADGVCIDAFLKPPMETEEPQIFYNASPS | 0.9225 Units/ml | 1.017 Units/ml | 1.580 Units/ml | 1.134 Units/ml | YES |
| SPAM1-ADVK: C-terminally truncated human PH20, precursor 450 aa (SEQ ID NO:43), mature 415 aa (SEQ ID NO:95) (protein, listed as Homo sapiens, HuPH20 precursor 1-450) MGVLKFKHIFFRSFVKSSGVSQIVFTFLLIPCCLTLNFRAPPVIPNVPFLWAWNAPSEFCLGKFDEPLDMSLFSFIGSPRINATGQGVTIFYVDRLGYYPYIDSITGVTVNGGIPQKISLQDHLDKAKKDITFYMPVDNLGMAVIDWEEWRPTWARNWKPKDVYKNRSIELVQQQNVQLSLTEATEKAKQEFEKAGKDFLVETIKLGKLLRPNHLWGYYLFPDCYNHHYKKPGYNGSCFNVEIKRNDDLSWLWNESTALYPSIYLNTQQSPVAATLYVRNRVREAIRVSKIPDAKSPLPVFAYTRIVFTDQVLKFLSQDELVYTFGETVALGASGIVIWGTLSIMRSMKSCLLLDNYMETILNPYIINVTLAAKMCSQVLCQEQGVCIRKNWNSSDYLHLNPDNFAIQLEKGGKFTVRGKPTLEDLEQFSEKFYCSCYSTLSCKEKADVK | 0.0405 Units/ml | 0.063 Units/ml |  |  | YES |
| SPAM1-VKDT: C-terminally truncated human PH20, precursor 452 aa (SEQ ID NO:42), mature 417 aa (SEQ ID NO:94) (protein, listed as Homo sapiens, HuPH20 precursor 1-452; Mature HuPH20 36-452) chain 1: MGVLKFKHIFFRSFVKSSGVSQIVFTFLLIPCCLTLNFRAPPVIPNVPFLWAWNAPSEFCLGKFDEPLDMSLFSFIGSPRINATGQGVTIFYVDRLGYYPYIDSITGVTVNGGIPQKISLQDHLDKAKKDITFYMPVDNLGMAVIDWEEWRPTWARNWKPKDVYKNRSIELVQQQNVQLSLTEATEKAKQEFEKAGKDFLVETIKLGKLLRPNHLWGYYLFPDCYNHHYKKPGYNGSCFNVEIKRNDDLSWLWNESTALYPSIYLNTQQSPVAATLYVRNRVREAIRVSKIPDAKSPLPVFAYTRIVFTDQVLKFLSQDELVYTFGETVALGASGIVIWGTLSIMRSMKSCLLLDNYMETILNPYIINVTLAAKMCSQVLCQEQGVCIRKNWNSSDYLHLNPDNFAIQLEKGGKFTVRGKPTLEDLEQFSEKFYCSCYSTLSCKEKADVKDT chain 2: LNFRAPPVIPNVPFLWAWNAPSEFCLGKFDEPLDMSLFSFIGSPRINATGQGVTIFYVDRLGYYPYIDSITGVTVNGGIPQKISLQDHLDKAKKDITFYMPVDNLGMAVIDWEEWRPTWARNWKPKDVYKNRSIELVQQQNVQLSLTEATEKAKQEFEKAGKDFLVETIKLGKLLRPNHLWGYYLFPDCYNHHYKKPGYNGSCFNVEIKRNDDLSWLWNESTALYPSIYLNTQQSPVAATLYVRNRVREAIRVSKIPDAKSPLPVFAYTRIVFTDQVLKFLSQDELVYTFGETVALGASGIVIWGTLSIMRSMKSCLLLDNYMETILNPYIINVTLAAKMCSQVLCQEQGVCIRKNWNSSDYLHLNPDNFAIQLEKGGKFTVRGKPTLEDLEQFSEKFYCSCYSTLSCKEKADVKDT | 0.0225 Units/ml | 0.054 Units/ml |  |  | YES |
| SPAM1-DAVD: C-terminally truncated human PH20, precursor 456 aa (SEQ ID NO:40), mature 421 aa (SEQ ID NO:92) (protein, listed as Homo sapiens, HuPH20 precursor 1-456; Mature HuPH20 36-456) chain 1: MGVLKFKHIFFRSFVKSSGVSQIVFTFLLIPCCLTLNFRAPPVIPNVPFLWAWNAPSEFCLGKFDEPLDMSLFSFIGSPRINATGQGVTIFYVDRLGYYPYIDSITGVTVNGGIPQKISLQDHLDKAKKDITFYMPVDNLGMAVIDWEEWRPTWARNWKPKDVYKNRSIELVQQQNVQLSLTEATEKAKQEFEKAGKDFLVETIKLGKLLRPNHLWGYYLFPDCYNHHYKKPGYNGSCFNVEIKRNDDLSWLWNESTALYPSIYLNTQQSPVAATLYVRNRVREAIRVSKIPDAKSPLPVFAYTRIVFTDQVLKFLSQDELVYTFGETVALGASGIVIWGTLSIMRSMKSCLLLDNYMETILNPYIINVTLAAKMCSQVLCQEQGVCIRKNWNSSDYLHLNPDNFAIQLEKGGKFTVRGKPTLEDLEQFSEKFYCSCYSTLSCKEKADVKDTDAVD chain 2: LNFRAPPVIPNVPFLWAWNAPSEFCLGKFDEPLDMSLFSFIGSPRINATGQGVTIFYVDRLGYYPYIDSITGVTVNGGIPQKISLQDHLDKAKKDITFYMPVDNLGMAVIDWEEWRPTWARNWKPKDVYKNRSIELVQQQNVQLSLTEATEKAKQEFEKAGKDFLVETIKLGKLLRPNHLWGYYLFPDCYNHHYKKPGYNGSCFNVEIKRNDDLSWLWNESTALYPSIYLNTQQSPVAATLYVRNRVREAIRVSKIPDAKSPLPVFAYTRIVFTDQVLKFLSQDELVYTFGETVALGASGIVIWGTLSIMRSMKSCLLLDNYMETILNPYIINVTLAAKMCSQVLCQEQGVCIRKNWNSSDYLHLNPDNFAIQLEKGGKFTVRGKPTLEDLEQFSEKFYCSCYSTLSCKEKADVKDTDAVD | 0.0675 Units/ml | 0 Units/ml |  |  | YES |

The next lines start with results.

| pH 5.5 Activity ([1]; Table 6) | pH 7.4 Activity ([1]; Table 6) | pH 5.5 Activity ([1]; Table 6A) | pH 7.4 Activity ([1]; Table 6A) | Molecule | Expressed in Media (CHO-S cells) |
| --- | --- | --- | --- | --- | --- |
| 0.0585 Units/ml | 0.0495 Units/ml |  |  | SPAM1-VDVC: C-terminally truncated human PH20, precursor 458 aa (SEQ ID NO:39), mature 423 aa (SEQ ID NO:91) (protein, listed as Homo sapiens, HuPH20 precursor 1-458; Mature HuPH20 36-458) chain 1: MGVLKFKHIFFRSFVKSSGVSQIVFTFLLIPCCLTLNFRAPPVIPNVPFLWAWNAPSEFCLGKFDEPLDMSLFSFIGSPRINATGQGVTIFYVDRLGYYPYIDSITGVTVNGGIPQKISLQDHLDKAKKDITFYMPVDNLGMAVIDWEEWRPTWARNWKPKDVYKNRSIELVQQQNVQLSLTEATEKAKQEFEKAGKDFLVETIKLGKLLRPNHLWGYYLFPDCYNHHYKKPGYNGSCFNVEIKRNDDLSWLWNESTALYPSIYLNTQQSPVAATLYVRNRVREAIRVSKIPDAKSPLPVFAYTRIVFTDQVLKFLSQDELVYTFGETVALGASGIVIWGTLSIMRSMKSCLLLDNYMETILNPYIINVTLAAKMCSQVLCQEQGVCIRKNWNSSDYLHLNPDNFAIQLEKGGKFTVRGKPTLEDLEQFSEKFYCSCYSTLSCKEKADVKDTDAVDVC chain 2: LNFRAPPVIPNVPFLWAWNAPSEFCLGKFDEPLDMSLFSFIGSPRINATGQGVTIFYVDRLGYYPYIDSITGVTVNGGIPQKISLQDHLDKAKKDITFYMPVDNLGMAVIDWEEWRPTWARNWKPKDVYKNRSIELVQQQNVQLSLTEATEKAKQEFEKAGKDFLVETIKLGKLLRPNHLWGYYLFPDCYNHHYKKPGYNGSCFNVEIKRNDDLSWLWNESTALYPSIYLNTQQSPVAATLYVRNRVREAIRVSKIPDAKSPLPVFAYTRIVFTDQVLKFLSQDELVYTFGETVALGASGIVIWGTLSIMRSMKSCLLLDNYMETILNPYIINVTLAAKMCSQVLCQEQGVCIRKNWNSSDYLHLNPDNFAIQLEKGGKFTVRGKPTLEDLEQFSEKFYCSCYSTLSCKEKADVKDTDAVDVC | YES |
| 0.054 Units/ml | 0 Units/ml |  |  | SPAM1-DTDA: C-terminally truncated human PH20, precursor 454 aa (SEQ ID NO:41), mature 419 aa (SEQ ID NO:93) (protein, listed as Homo sapiens, HuPH20 precursor 1-454; Mature HuPH20 36-454) chain 1: MGVLKFKHIFFRSFVKSSGVSQIVFTFLLIPCCLTLNFRAPPVIPNVPFLWAWNAPSEFCLGKFDEPLDMSLFSFIGSPRINATGQGVTIFYVDRLGYYPYIDSITGVTVNGGIPQKISLQDHLDKAKKDITFYMPVDNLGMAVIDWEEWRPTWARNWKPKDVYKNRSIELVQQQNVQLSLTEATEKAKQEFEKAGKDFLVETIKLGKLLRPNHLWGYYLFPDCYNHHYKKPGYNGSCFNVEIKRNDDLSWLWNESTALYPSIYLNTQQSPVAATLYVRNRVREAIRVSKIPDAKSPLPVFAYTRIVFTDQVLKFLSQDELVYTFGETVALGASGIVIWGTLSIMRSMKSCLLLDNYMETILNPYIINVTLAAKMCSQVLCQEQGVCIRKNWNSSDYLHLNPDNFAIQLEKGGKFTVRGKPTLEDLEQFSEKFYCSCYSTLSCKEKADVKDTDA chain 2: LNFRAPPVIPNVPFLWAWNAPSEFCLGKFDEPLDMSLFSFIGSPRINATGQGVTIFYVDRLGYYPYIDSITGVTVNGGIPQKISLQDHLDKAKKDITFYMPVDNLGMAVIDWEEWRPTWARNWKPKDVYKNRSIELVQQQNVQLSLTEATEKAKQEFEKAGKDFLVETIKLGKLLRPNHLWGYYLFPDCYNHHYKKPGYNGSCFNVEIKRNDDLSWLWNESTALYPSIYLNTQQSPVAATLYVRNRVREAIRVSKIPDAKSPLPVFAYTRIVFTDQVLKFLSQDELVYTFGETVALGASGIVIWGTLSIMRSMKSCLLLDNYMETILNPYIINVTLAAKMCSQVLCQEQGVCIRKNWNSSDYLHLNPDNFAIQLEKGGKFTVRGKPTLEDLEQFSEKFYCSCYSTLSCKEKADVKDTDA | YES |
